Results from patent US20110034396A1.

Key:
Test in all cases: cell-based or functional assay
[1] = molecular target: bovine serum albumin (bovine) (UniProt P02769)
collagen type IV = molecular target: collagen type IV
fibronectin = molecular target: fibronectin

Sequence of UniProt P02769 (P02769 25-607 limits assumed): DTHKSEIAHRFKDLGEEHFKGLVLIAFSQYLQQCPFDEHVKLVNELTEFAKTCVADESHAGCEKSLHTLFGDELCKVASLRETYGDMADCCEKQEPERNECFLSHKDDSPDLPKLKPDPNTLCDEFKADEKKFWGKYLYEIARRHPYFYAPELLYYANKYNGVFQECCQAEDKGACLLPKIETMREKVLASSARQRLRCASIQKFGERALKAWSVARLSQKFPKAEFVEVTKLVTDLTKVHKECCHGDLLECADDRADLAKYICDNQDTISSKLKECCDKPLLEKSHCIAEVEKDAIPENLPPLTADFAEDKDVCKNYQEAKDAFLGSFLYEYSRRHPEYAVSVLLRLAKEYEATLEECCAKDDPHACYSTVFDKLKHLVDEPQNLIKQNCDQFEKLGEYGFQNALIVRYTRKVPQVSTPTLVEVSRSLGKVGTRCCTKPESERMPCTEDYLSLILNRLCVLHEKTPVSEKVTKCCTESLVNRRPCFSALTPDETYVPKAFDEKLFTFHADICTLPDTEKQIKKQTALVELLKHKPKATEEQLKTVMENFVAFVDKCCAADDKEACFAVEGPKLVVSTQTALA

- IC50 of saratin inhibition of MCP-1-induced human monocyte migration through filters coated with 1 mg/mL BSA (Boyden chamber) [1]: 37 nM
- Saratin IC50, MCP-1-induced human monocyte migration through filters coated with BSA, coating conc. 1.0 as the table prints it (the text gives 1.1 nM for 0.01 mg/mL BSA) (Boyden chamber) [1]: 1.1 nM
- Saratin IC50, MIP-1alpha-induced human T lymphocyte migration through filters coated with BSA, coating conc. 1.0 (Boyden chamber) [1]: 185 nM
- Saratin IC50, MCP-1-induced human monocyte migration through filters coated with Collagen IV, coating conc. 0.01 (Boyden chamber) (collagen type IV): 0.172 nM
- Saratin IC50, MCP-1-induced human monocyte migration through filters coated with Collagen IV, coating conc. 1.0 (Boyden chamber) (collagen type IV): 0.0623 nM
- Saratin IC50, MIP-1alpha-induced human T lymphocyte migration through filters coated with Collagen IV, coating conc. 0.01 (Boyden chamber) (collagen type IV): 6.86 nM
- Saratin IC50, MIP-1alpha-induced human T lymphocyte migration through filters coated with Collagen IV, coating conc. 1.0 (Boyden chamber) (collagen type IV): 0.0079 nM
- Saratin IC50, MCP-1-induced human monocyte migration through filters coated with Fibronectin, coating conc. 1.0 (Boyden chamber) (fibronectin): 19.4 nM
- Saratin IC50, MIP-1alpha-induced human T lymphocyte migration through filters coated with Fibronectin, coating conc. 1.0 (Boyden chamber) (fibronectin): 3.69 nM
B1: saratin (protein)
chain: EEREDCWTFYANRKYTDFDKSFKKSSDLDECKKTCFKTEYCYIVFEDTVNKECYYNVVDGEELDQEKFVVDENFTENYLTDCEGKDAGNAAGTGDESDEVDED
